T1: recombinant human TIGIT (human, UniProt Q495A1 22-141, limits assumed)
T1 construct: recombinant human TIGIT used in Carterra SPR; also called hTIGIT
T1 sequence (looked up): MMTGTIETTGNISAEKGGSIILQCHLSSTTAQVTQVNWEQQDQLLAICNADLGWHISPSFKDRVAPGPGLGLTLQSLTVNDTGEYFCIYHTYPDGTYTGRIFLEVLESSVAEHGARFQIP

T2: human TIGIT-Fc (human, UniProt Q495A1 22-141, limits assumed)
T2 construct: not shown: Fc; not described
T2 sequence (looked up): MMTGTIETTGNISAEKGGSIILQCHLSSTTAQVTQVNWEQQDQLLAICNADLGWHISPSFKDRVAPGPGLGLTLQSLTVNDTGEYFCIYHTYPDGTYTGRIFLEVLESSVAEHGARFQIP

B1: TIGIT-SC174 (Fc fusion)
VHH: EVQLVESGGGLVQPGGSLRLSCAASGFLFDSYAMGWFRQAPGKEREFVAAISWSGGSTYYADSVKGRFTISADNSKNTAYLQMNSLKPEDTAVYYCTTDALRFLEWPWWGQGTLVTVSS
notes: VHH-Fc fusion in assay
B2: TIGIT-SC105 (Fc fusion)
VHH: EVQLVESGGGLVQPGGSLRLSCAASGFAFSRYGMGWFRQAPGKERELVATIGWSGSSTFYADSVKGRFTISADNSKNTAYLQMNSLKPEDTAVYYCARDGGPYYYGLDVWGQGTLVTVSS
notes: VHH-Fc fusion in assay
B3: TIGIT-SC177 (Fc fusion)
VHH: EVQLVESGGGLVQPGGSLRLSCAASGFTFSPSWMGWFRQAPGKEREWVASVLRGGYTWYADSVKGRFTISADNSKNTAYLQMNSLKPEDTAVYYCATDRGPAMVFNLWGQGTLVTVSS
notes: VHH-Fc fusion in assay
B4: TIGIT-SC181 (Fc fusion)
VHH: EVQLVESGGGLVQPGGSLRLSCAASGFTLSSNWMGWFRQAPGKEREFVASVLRGGYTWYADSVKGRFTISADNSKNTAYLQMNSLKPEDTAVYYCARDAYYYGLWGQGTLVTVSS
notes: VHH-Fc fusion in assay
B5: TIGIT-SC146 (Fc fusion)
VHH: EVQLVESGGGLVQPGGGLRLSCAASGFTLENNMMGWFRQAPGKEREFVAAISASGTLRAYADSVKGRFTISADNSKNTAYLQMNSLKPEDTAVYYCAKGGQAGPMAFYFDYWGQGTLVTVSS
notes: VHH-Fc fusion in assay
B6: TIGIT-SC152 (Fc fusion)
VHH: EVQLVESGGGLVQPGGNLRLSCAASGSTFSKHHAMGWFRQAPGKEREFVAGIIRSGTLKAYADSVKGRFTISADNSKNTAYLQMNSLKPEDTAVYYCTRGRAARHNLWYFDLWGQGTLVTVSS
notes: VHH-Fc fusion in assay
B7: TIGIT-SC137 (Fc fusion)
VHH: EVQLVESGGGLVQPGGSLRLSCAASGFTLENNMMGWFRQAPGKEREFVAAISRSGTLKAYADSVKGRFTISADNSKNTAYLQMNSLKPEDTAVYYCSLVSGPRWYWGQGTLVTVSS
notes: VHH-Fc fusion in assay
B8: TIGIT-SC27 (Fc fusion)
VHH: EVQLVESGGGLVQPGGSLRLSCAASGLTFSNYVMGWFRQAPGKEREVVAGILSDGRELYADSVKGRFTISADNSKNTAYLQMNSLKPEDTAVYYCARDVFGEGHWGQGTLVTVSS
notes: VHH-Fc fusion in assay
B9: TIGIT-SC141 (Fc fusion)
VHH: EVQLVESGGGLVQPGGSLRLSCAASGNAFSSSVMGWFRQAPGKEREFVAGIWRSGSLKAYADSVKGRFTISADNSKNTAYLQMNSLRPEDTAVYYCARAYVGMTTVTFDHWGQGTLVTVSS
notes: VHH-Fc fusion in assay
B10: TIGIT-SC148 (Fc fusion)
VHH: EVQLVESGGGLVQPGGSLRLSCAASGDIGSINAMGWFRQAPGKEREFVAGIWRSGNLKAYADSVKGRFTISADNSKNTAYLQMSSLKPEDTAVYYCARGNIVVVPAAFVIWFDPWGQGTLVTVSS
notes: VHH-Fc fusion in assay
B11: TIGIT-SC45 (Fc fusion)
VHH: EVQLVESGGGLVQPGGSLRLSCAASGGTFNAMGWFRQAPGKEREWVASVLRGGYTWYADSVKGRFTISADNSKNTAYLQMNSLKPEDTAVYYCAKDGGSSGTYQNWWGQGTLVTVSS
notes: VHH-Fc fusion in assay
B12: TIGIT-SC199 (Fc fusion)
VHH: EVQLVESGGGLVQPGGSLRLSCAASGFSSAQYAMGWFRQAPGKERELVASIDSEGRTNYADSVKGRFTISADNSKNTAYLQMNSLKPEDTAVYYCTRDGGFDPWGQGTLVTVSS
notes: VHH-Fc fusion in assay
B13: TIGIT-SC96 (Fc fusion)
VHH: EVQLVESGGGLVQPGGSLRLSCAASGMTTIGPMGWFRQAPGKEREFVAAINWSGSSTVYADSVKGRFTISADNSKNTAYLQMNSLKPEDTAVYYCVTYSAYDFRNAWGQGTLVTVSS
notes: VHH-Fc fusion in assay
B14: TIGIT-SC192 (Fc fusion)
VHH: EVQLVESGGGLVQPGGSLRLSCAASGFTFSVYWMGWFRQAPGKEREFVAAISRSGTLKEYADSVKGRFTISADNSKNTAYLQMNSLKPEDTAVYYCARGSGWPKIHFDYWGQGTLVTVSS
notes: VHH-Fc fusion in assay
B15: TIGIT-SC193 (Fc fusion)
VHH: EVQLVESGGGLVQPGGSLRLSCAASGFTFSDYWMGWFRQAPGKEREFVAAISRSGTLKAYADSVKGRFTISADNSKNTAYLQMNSLKPEDTAVYYCARGSGWPKIHFDYWGQGTLVTVSS
notes: VHH-Fc fusion in assay
B16: TIGIT-SC202 (Fc fusion)
VHH: EVQLVESGGGLVQPGGSLRLSCAASGFTFSPSWMGWFRQAPGKEREWVASVLRGGYTWYADSVKGRFTISADNSKNTAYLQMNSLKPEDTAVYYCTTDGGYSGIVGFAWGQGTLVTVSS
notes: VHH-Fc fusion in assay
B17: TIGIT-SC205 (Fc fusion)
VHH: EVQLVESGGGLVQPGGSLRLSCAASGFTFDRSWMGWFRQAPGKEREFVAAIWRSGTLKAYADSVKGRFTISADNGKNTAYLQMNSLKPEDTAVYYCAEGGTTAWGWFVPWGQGTLVTVSS
notes: VHH-Fc fusion in assay
B18: TIGIT-SC186 (Fc fusion)
VHH: EVQLVESGGGLVQPGGSLRLSCAASGNTFSGGFMGWFRQAPGKEREYVASVLRGGYTWYADSVKGRFTISADNSKNTTYLQMNSLKPEDTAVYYCTTDRGYNWNYDWGQGTLVTVSS
notes: VHH-Fc fusion in assay
B19: TIGIT-SC143 (Fc fusion)
VHH: EVQLVESGGGLVQPGGSLRLSCAASGFTLGYYVMGWFRQAPGKEREFVAAISASGTLRAYADSVEGRFTISADNSKNTAYLQMNSLKPEDTAVYYCARAELGYSYGSVDGYWGQGTLVTVSS
notes: VHH-Fc fusion in assay
B20: TIGIT-SC118 (Fc fusion)
VHH: EVQLVESGGGLVQPGGSLRLSCAASGRTFSFMGWFRQAPGKEREWVASVLRGGYTWYADSVKGRFTISADNSKNTAYLQMNSLKPEDTAVYYCAKDGGWFDPWGQGTLVTVSS
notes: VHH-Fc fusion in assay
B21: TIGIT-SC109 (Fc fusion)
VHH: EVQLVESGGGLVQPGGSLRLSCAASGRDISSYIMGWFRQAPGKERELVAIIDTNGDDTLYADSAKGRFTISADNSKNTAYLQMNSLKPEDTAVYYCANGGRVWWAFDYWGQGTLVTVSS
notes: VHH-Fc fusion in assay
B22: TIGIT-SC94 (Fc fusion)
VHH: EVQLVESGGGLVQPGGSLRLSCAASGSSFSAYAMGWFRQAPGKEREFVSLINWSSGKTIYADSVKGRFTISADNSKNTAYLQMNSLKPEDTAVYYCARVRIFNHVHRPSYYFDYWGQGTLVTVSS
notes: VHH-Fc fusion in assay
B23: TIGIT-SC60 (Fc fusion)
VHH: EVQLVESGGGLVQPGGSLRLSCAASGFTFSPSWMGWFRQAPGKEREWVASVLRGGYTWYADSVKGRFTISADNSKNTAYLQMNSLKPEDTAVYYCARDDLDYWGQGTLVTVSS
notes: VHH-Fc
B24: TIGIT-SC188 (Fc fusion)
VHH: EVQLVESGGGLVQPGGSLRLSCAASGNTFSGGFMGWFRQAPGKEREWVASVLRGGYTWYADSVKGRFTISADNSKNTAYLQMNSLKPEDTAVYYCTTDSLPGWGQGTLVTVSS
notes: VHH-Fc
B25: TIGIT-SC95 (Fc fusion)
VHH: EVQLVESGGGLVQPGGSLRLSCAASGPTFSTNVMGWFRQAPGKEREFVSSIHWGGSSTVYADSVKGRFTISADNSKNTAYLQMNSLKPEDTAVYYCVTYSAYDFRNAWGQGTLVTVSS
notes: VHH-Fc
B26: TIGIT-SC1 (Fc fusion)
VHH: EVQLVESGGGLVQPGGSLRLSCAASGFTLNDYAMGWFRQAPGKERELVAWIARYDGSTLYADSVKGRFTISADNSKNTAYLQMNSLKPEDTAVYYCARVDWALNAAPFDYWGQGTLVTVSS
notes: VHH-Fc
B27: TIGIT-SC156 (Fc fusion)
VHH: EVQLVESGGGLVQPGGSLRLSCAASGNTFSGGFMGWFRQAPGKEREWVASVLRGGYTWYADSVKGRFTISADNSKNTAYLQMNSLKPEDTAVYYCTTEGYDFWSGYYDYWGQGTLVTVSS
notes: VHH-Fc
B28: TIGIT-SC162 (Fc fusion)
VHH: EVQLVESGGGLVQPGGSLRLSCAASGNTFSGGFMGWFRQAPGKEREWVASVLRGGYTWYADSVKGRFTISADNSKNTAYLQMNSLKPEDTAVYYCTTDRAIGVRPLFDHWGQGTLVTVSS
notes: VHH-Fc

The binders below were run against T1, recombinant human TIGIT (assay: SPR Carterra, average).
Experimental: Binding affinities of VHH-Fc proteins to recombinant human TIGIT were measured by SPR using a Carterra instrument (Table 10A). […] Average values reported from measurements from 1-2 samples.

| Binder | Kd [nM] | koff [s⁻¹] | kon [M⁻¹ s⁻¹] |
| --- | --- | --- | --- |
| B1 | 124 | 0.0335 | 444000 |
| B2 | 189 | 0.0116 | 61600 |
| B3 | 340 | 0.00279 | 48600 |
| B4 | 393 | 0.168 | 428000 |
| B5 | 1060 | 0.24 | 226000 |
| B6 | 1470 | 0.155 | 106000 |
| B7 | 102 | 0.00688 | 67500 |
| B8 | 80.6 | 0.00624 | 80900 |
| B9 | 903 | 0.151 | 167000 |
| B10 | 1320 | 0.16 | 121000 |
| B11 | 103 | 0.00929 | 89900 |
| B12 | 321 | 0.128 | 399000 |
| B13 | 113 | 0.0176 | 166000 |
| B14 | 131 | 0.0715 | 545000 |
| B15 | 841 | 0.178 | 211000 |
| B16 | 625 | 0.0934 | 93800 |
| B17 | 119 | 0.0854 | 718000 |
| B18 | 170 | 0.005 | 98700 |
| B19 | 474 | 0.239 | 504000 |
| B20 | 114 | 0.00252 | 29700 |
| B21 | 121 | 0.00468 | 38700 |
| B22 | 549 | 0.027 | 49200 |

Each binder was assayed against T2, human TIGIT-Fc (assay: CD155 competition ELISA, single point; also: test concentration or dose not given here).
Experimental: TIGIT/CD155 inhibition of VHH-Fcs were assessed using an ELISA assay (Table 10B). Briefly, human TIGIT-Fc was coated on a plate & then incubated with VHH-Fcs and human CD155-biotin. Bound CD155-biotin was detected using a streptavidin-HRP conjugate visualized with TMB. Strong inhibitors from the single point screen were titrated to determine EC50 (Table 10C).

| Binder | OD (450 nm) [OD] |
| --- | --- |
| B23 | 0.349 |
| B24 | 0.524 |
| B25 | 0.613 |
| B26 | 0.649 |
| B27 | 0.701 |
| B28 | 0.423 |

Source: patent publication US20260184782A1 (TWIST BIOSCIENCE, published 2026)
